The target in assay [1] is Respiratory Syncytial Virus fusion glycoprotein (RSV F) on RSV-A2 virus (Respiratory Syncytial Virus subtype A (RSV-A2)). The experiment in a line: cell-based or functional assay.
For assay [2], the target named is RSV prefusion F (preF), DS-Cav1 (Respiratory Syncytial Virus). The assay is described as follows: BLI, IgG on anti-human IgG sensor, 100 nM antigen.
In assay [3] the target is RSV postfusion F (postF), F deltaFP (Respiratory Syncytial Virus). The assay is described as follows: BLI, IgG on anti-human IgG sensor, 100 nM antigen. On the technique in general: BLI is a label-free optical method that tracks binding on a fibre tip over time.

A value given as a limit tells only on which side of the number the result lay.

B1: ADI-41173 (antibody, V domains shown)
VH: QVQLVQSGAEMKKPGSSAKVSCKASGGTLSSYAINWVRQAPGQGLEWMGGIIPIFGTTKYAPKFQDRVTITVDESTSTAYMELSSLRSEDTAVYYCSRESSTWDVAHYFDYWGQGTLVTVSS
VL: DIVMTQTPSAISASVGDRVTITCRASQGISNYLAWVQQKPGKVPKRLIYGASSLQSGVPSRFSGSGSGTEFTLTISSLQPEDFATYYCLQHNSYPYTFGQGTKVEIK
As usually defined, the Kd is a measure of binding affinity in units of concentration. Take B1: the Neutralization IC50 (RSV subtype A) in assay [1] was found to be 0.08 µg/mL. The Kd was determined as 0.315 nM in assay [2] and 0.294 nM in assay [3].

B2: ADI-41184 (antibody, V domains shown)
VH: EVQLLETGGGLVQPGGSLRLSCAASGFTFSSYDMNWVRQAPGKGLEWVSTISGSGGPTYYAGSVKGRFTISRDNSKNTLYLQMNSLRADDTAVYYCAKAQLYDTSGYYLYYFDYWGQGTLVTVSS
VL: DIRMTQSPSSLSASVGDRVTITCRASQRITSYLNWYQQKPGKAPKLLIYAASSLQSGVPSRFSGSGSGTDFTLTISSLQPEDFATYFCQQSYSTSFTFGPGTKVDIK
In turn, B2 yielded a Neutralization IC50 (RSV subtype A) in assay [1] greater than 25 µg/mL. Besides, the Kd in assay [2] is 2.85 nM; in assay [3], 0.532 nM.

B3: ADI-41171 (antibody, V domains shown)
VH: EVQLVESGPGLVKPSQTLSLTCTVSGGSISSGGDYWSWVRQRPGKGLEWIGYIYNSGSGYYNPSLKNRVSMSMHTSRNQFSLRLSSVTAADTAFYYCARDPFYRSGGIHYFDYWGQGALVTVSS
VL: DIVLTQTPGTLSLSPGEGATLSCRASPSVGSTSLAWYQQKPGQAPRLLIYGASSRATGIPDRFSGSGSGTDFTLTISRLEPEDFAVYYCQQDGGLPITFGLGTRLEIK
Consider B3, for which, in assay [1], the Neutralization IC50 (RSV subtype A) was greater than 25 µg/mL. The Kd in assay [2] came out at 9.8 nM; in assay [3] it was 4.26 nM.

B4: ADI-41179 (antibody, V domains shown)
VH: QVQLVQSGAEVKKPGSSVKISCKASGGTFSSHPISWVRQAPGQGLEWMGRIVPIFGIANYAQKFQGRVTMIADKSTNTAYMELSNLRSEDTAVYYCANPVYDSSGFQWGQGTLVTVSS
VL: QPVLTQPRSVSGSPGQSVTISCTGTSGDGGFYNYVSWYQQHPGKTPKLMIYDVDQRPSGVPDRFSGSKSGNTASLTISGLQAEDEADYYCCSYPGNPLYVFGTGTKVTVL
On to B4, for which the Neutralization IC50 (RSV subtype A) in assay [1] is greater than 25 µg/mL. In addition, the dissociation constant Kd amounted to 0.948 nM in assay [2] and 0.342 nM in assay [3].

B5: ADI-41185 (antibody, V domains shown)
VH: QVQLQQWGAGLLKPSETLSLTCAVYGGSFSSYYYSWIRQPPGKGLEWIGEINQSGSTNYNPSLKSRVTISVDTSKNEFSLKLSSVTAADTAVYYCARIVREFNTRWYDYYYMDVWGKGTTVTVSS
VL: DIRVTQSPATLSLSPGERATLSCRTSQSISSSYLAWYQQKFGQAPRLLIYGASSRATGIPDRFSGSGSGTDFTLTISRLEPEDFAVYYCQQYGISPPMYTFGQGTKVEIK
In assay [1], B5 returned a Neutralization IC50 (RSV subtype A) greater than 25 µg/mL. Further, the Kd in assay [2] amounted to 3.23 nM; in assay [3], 0.809 nM.

B6: ADI-41181 (antibody, V domains shown)
VH: QVQLVQSGAEVKKPGSSVKVSCKASGGSFSSYTLNWVRQAPGQGLEWMGRFVPIVGIANYAQKFQGRVTITADKSTSTVYMELSSLRSEDTAVYYCATAPTAYCSGDCYSLFDPWGQGTLVTVSS
VL: QSVLIQPASVSGSPGQSITISCTGISSDVGSYNLVSWYQQHPGKAPKLIIYEVNKRPSGVSNRFSGSKSGNTASLTISGLQAEDEADYYCCSYAVSRTSLYVFGTGTKVTVL
Molecule B6 showed a Neutralization IC50 (RSV subtype A) in assay [1] greater than 25 µg/mL. Besides, the Kd came to 1.95 nM in assay [2] and 0.936 nM in assay [3].

B7: ADI-41170 (antibody, V domains shown)
VH: EVQLLESGGGLIQPGGSLRLSCAASGFTFNNYVMSWVRQAPGKGLEWVAAISSSGVSTYYAASVKGRFTISRDNSKNMLYVQLNSLRAEDTAVYYCAKETGSYYYFDSWGQGTLVTVSS
VL: ETTLTQSPSTLSGSVGDRVTITCRASESISSWLAWYQQKPGKAPKLLIYKASNLESGVPSRFSGSGSGTEFTLTISSLQPDDFATYYCQQYNSYLITFGQGTRLEIK
For B7, the Neutralization IC50 (RSV subtype A) in assay [1] was greater than 25 µg/mL. In addition, the dissociation constant Kd in assay [2] is 5.67 nM; in assay [3], 2.64 nM.

B8: ADI-41183 (antibody, V domains shown)
VH: QVQLQESGAGLVKPSETLSLTCGVYGESFSGHSWSWIRQPPGRGLEWIGEINQSGTTKYNPSLRSRVTISVDRSKNEFSLKVSSVTAADTAVYFCARYFRSFYTIGPDYYYMDVWGKGTTVTVSS
VL: EIVLTQSPSSLSASVGDRVTITCRASQNINNYLNWYQQKPGKAPRLLIYAASSLQSGVPSRFTGSGSGTDFTLTIRSLQSEDFATYYCQHSYSSSLLTFGGGTKVDIK
As to B8, the Neutralization IC50 (RSV subtype A) in assay [1] is greater than 25 µg/mL. In addition, the results for the equilibrium dissociation constant (Kd) in assay [2] and in assay [3] were 4.08 nM and 1 nM, respectively.

B9: ADI-41169 (antibody, V domains shown)
VH: EVQLVESGAEVKKPGESLKISCEAFGYSFTSYWIGWVRQVPGRGLEWIGVIYPGDSDIRYTPSFRGQVTISADRSISTAYLQWNNLKASDTAMYYCARPGRDINYYHSRDYGALDIWGQGTTVTVSS
VL: DIQLTQSPDSLAVSLGERVTINCKSSQSFLYSSNNKNYLAWYQQKPGQPPKLLIYWASVRESGVPDRFSGSGSGTDFTLTISSLQAEDVAVYYCQEYYSPPMFTFGQGTKVEIK
In turn, B9 had a Neutralization IC50 (RSV subtype A) in assay [1] greater than 25 µg/mL. The Kd came to 4.94 nM in assay [2] and 1.19 nM in assay [3].

B10: ADI-41175 (antibody, V domains shown)
VH: EVQLLESGGGVVQPGRSLRLSCATSGFTFSSYGMHWVRQAPGKGLEWVAVIYYEGSNKYYGDSVKGRFTISRDNSKSTLYLQMNRLRAEDTAVYYCARRPAGGFDYWGPGTLVTVSS
VL: EIVMTQSPLSLPVTPGEPASISCRSSQNLLNSNGYNYLDWYLQKPGQSPQLLIYLGSNRASGVPDRFSGSGSGTDFTLKISRVEAEDVGVYYCMQALQTPYTFGQGTKLEIK
B10 gave a Neutralization IC50 (RSV subtype A) in assay [1] greater than 25 µg/mL. Besides, the results for the Kd in assay [2] and in assay [3] were 4.25 nM and 1.07 nM, respectively.

B11: ADI-41186 (antibody, V domains shown)
VH: EVQLLESGAEVKKPGESLKISCKGSGYSFSSYWIAWVRQMPGKGLEWMGIIYPSDSDTKYSPSFQGQVTISADKSISTAYLQWSSLKASDTAMYYCARQAGIQRPLDYWGQGTLVTVSS
VL: EIVMTQSPATLSVSPGERATLSCRASQSVRSNLAWYQQKPGQAPRLLIYDASTRATGISARFSGSGSGTEFTLTISSLQSEDFAVYYCQQFHNWPPYTFGQGTKVEIK
For B11, the Neutralization IC50 (RSV subtype A) in assay [1] was greater than 25 µg/mL. Also, the Kd in assay [2] is 3.01 nM; in assay [3], 0.703 nM.

B12: ADI-41182 (antibody, V domains shown)
VH: QVQLVQSGAEVKKPGESLKISCQGSGYSFTSYWIGWVRQMPGKDLEWMGIIYPSDSDTRYSPSFQGQVTISVDKSINTAYLQWTSLKASDTAMYYCARCDGAVYWYFDLWGRGTLVTVSS
VL: EIVLTQSPATLSVSPGERVTLSCRASRSVSSHLAWYQQKPGQAPRLLMYGASTRATGIPARFSGSGSGTEFTLTISSLQSEDFGVYYCQQYNNWPPALTFGGGTKLEIK
B12 came in with a Neutralization IC50 (RSV subtype A) in assay [1] greater than 25 µg/mL. For the same molecule, the dissociation constant Kd in assay [2] is 2.55 nM; in assay [3], 0.462 nM.

B13: ADI-41166 (antibody, V domains shown)
VH: EVQLVQSGAEVKKPGASVKVSCKTSGYTFTGDYLHWVRQAPGQGLEWMGRLNPKSGGTVYAQRFQGRVTMTGDTSVTTAYMQLTRLRSDDTAIYYCARGIPVSGPVSIDYWGQGTLVTVSS
VL: QSVLTQPASLSGSPGQSITISCTGTSSDVGGYGYVSWYQQHPGKAPKLMIYDVANRPSGVSHRFSGSKSGNTASLTISGLQADDEADYYCSSYTRSNTVVFGGGTKLTVL
Take B13: the Neutralization IC50 (RSV subtype A) in assay [1] is greater than 25 µg/mL. Moreover, the dissociation constant Kd was 3.15 nM in assay [2] and 0.44 nM in assay [3].

Source of the values: patent publication US20260258115A1.
